Reference: PMC5397179

Tests used:
[1] = system: PcrA-sCt (C-terminal Tudor-like domain) (Geobacillus stearothermophilus); test: EMSA; conditions: no binding detected up to 5 uM; 2.5 mM Mg2+; EMSA: 50 nM (so in the source) HEPES-KOH pH 7.5, 100 mM KCl, 2.5 mM MgCl2, 0.1 mg/mL BSA, 1 mM (reagent truncated in material); 20 nM DNA; TBE-PAGE; temperature not …
RNAP subunit α = test: pulldown quantified by mass spectrometry; conditions: parent: est. 6.2; read off a plot
RNAP subunit ω = test: pulldown quantified by mass spectrometry; conditions: parent: est. 13; read off a plot
RNAP subunit δ = test: pulldown quantified by mass spectrometry; conditions: parent: est. 12; read off a plot
RNAP subunit β' = test: pulldown quantified by mass spectrometry; conditions: parent: est. 12; read off a plot
RNAP subunit β = test: pulldown quantified by mass spectrometry; conditions: parent: est. 16; read off a plot

## 147 base ssDNA oligonucleotide
[1]
  Kd: > 5 µM

## 147 bp dsDNA
[1]
  Kd: > 5 µM

## Biotinylated full length PcrA (Geobacillus stearothermophilus), wild type (from UniProt P56255) K712A
RNAP subunit α
  other: Relative Ion Score: 2.7
RNAP subunit ω
  other: Relative Ion Score: 4.7
RNAP subunit δ
  other: Relative Ion Score: 3.1
RNAP subunit β'
  other: Relative Ion Score: 3.6
RNAP subunit β
  other: Relative Ion Score: 4.5

## Biotinylated full length PcrA (Geobacillus stearothermophilus), wild type (from UniProt P56255) L714A
RNAP subunit α
  other: Relative Ion Score: 2.7
RNAP subunit ω
  other: Relative Ion Score: 2.6
RNAP subunit δ
  other: Relative Ion Score: 3.6
RNAP subunit β'
  other: Relative Ion Score: 2.8
RNAP subunit β
  other: Relative Ion Score: 4.1
